The values below come from patent US20170145086A1 (VISTERRA, published 2017).

Sequences and labels used below:
B1: monoclonal antibody 3530 (antibody, mouse IgG2, V domains shown)
VH: QVQLQQSGAELVRPGASVKLSCKASGYTFTDHEMHWVRQTPVHGLEWIGVIDPDTGDTTYNQKFKGKATLTADKSSSTAYMDLRSLTSEDSAVFYCTRWTGGDYWGHGTTLTVSS
VL: DAVMTQTPLSLSVTIGQPASISCKSSQSLLYSDGKTYLNWFQQRPGQSPKRLMYQVSKLDPGIPDRFSGSGSETDFTLKISRVEAEDLGVYYCLQGTYYPYTFGSGTKLEIK
B2: monoclonal antibody 3631 (antibody, V domains shown)
VH: EIQLQQSGPELVKPGASVKVSCKASGYSFTDYNIYWVKQSHGKSLEWIGYIDPSNGGPGYNQKFRGKATLTVDKSSSTAFLHLNSLTSEDSAVYYCARRDNYGSGTMDYWGQGTSVTVSS
VL: DIVMTQSQKFMSTSVGDRVSITCKASQNVGTDVSWYQQKPGKSPKPLIYWASNRFTGVPDRFIGSGSGTDFTLTISNVQSEDLADYFCEQYSIYPLTFGAGTKLELK
notes: mouse-derived
B3: monoclonal antibody 3732 (antibody, V domains shown)
VH: B2 VH with Y32D, I34M, S54L, P58T, R65K, G103A, S104T
VL: B2 VL with Q27K, I63T, S76N, I93S
notes: mouse-derived
B4: monoclonal antibody 4540 (antibody, V domains shown)
VH: QVQLQQSGPELVKPGASVKISCKASGYTFADYYINWVKQRPGQGLEWIGWIFPGSGSTYYNEKFKGKATLTVDKSSSTAYMLLSSLTSEDSAVYFCARGDSGRAMDYWGQGTSVTVSS
VL: DIQMTQSPSSLSASLGGKVTITCKASQDINKYIAWYQHKPGKGPRLLIHYTSTLQSGIPSRFSGSGSGRDYSFSISNLEPEDNATYYCLQYDNLLTFGAGTKLELK
notes: mouse-derived
B5: monoclonal antibody 3833 (antibody, V domains shown)
VH: QVQLQQSGAELVRPGTSVKMSCKAAGYTFTNYWIGWVKQRPGHGLEWIGDIYPGGIGGGYTKYNEKFKGKATLTADTSSSTAYMQLGSLTSEDSAIYFCSRSETGRAMDYWGQGTSVTVSS
VL: B4 VL with Q55K, S56P, N77D, N83I, L95N, A99G, L105I
notes: mouse-derived
B6: monoclonal antibody 2218 (antibody, mouse IgG2, V domains shown)
VH: DVQLQESGPGLVKPSQSLSLTCSVTGYSITSGYYWNWIRQFPGNKLEWMGYISYDGYNNYNPSLKNRISITRDTSKNQFFLKLNSVTTEDTATYYCANYYDYEDWYFGVWGTGTTVTVSS
VL: DIVLTQSPASLAMSLGKRATISCRASESVSIIGTNSIHWYQQKPGQPPKLLIYHASNLETGVPARFSGSGSRTDFTLTIDPVEEDDVAIYYCLQSRKIPYTFGGGTKLEIK
B7: 4237 (antibody, V domains shown)
VH: QAHLKESGPGLVAPSQSLSITCTVSGFSLTDYDVHWVRQSPGKGLEWLGVIWNDGSTDYNTAFISRLTISKDNSKSQVFFKMNSLQADDTAIYYCARNWYGGYWFAYWGQGTLVTVSA
VL: DIQMTQSPASLSASAGETVTITCRSSENIYSYLAWYQQKQGKSPQLLVYNANALAEGVPSRFSGSGSVTQFSLKINSLQPEDFGSYYCQHHYGTPFTFGSGTKLEIK
notes: also called monoclonal antibody 4237

Changes are numbered by the printed parent chain.

One test has as its target T1, HA-GCN4 mAPRIL (amino acid residues 96-241) (mouse, UniProt Q9D777 96-241, Assembles as a homotrimer through the GCN4 zipper; one protomer is given.).
T1 construct: Bought (R&D Systems); also called HA-tagged mouse APRIL (R&D Systems); recombinant mouse APRIL; not shown: N-terminal HA tag and GCN4 isoleucine-zipper trimerisation domain, with any linker, of the bought R&D Systems protein
T1 sequence: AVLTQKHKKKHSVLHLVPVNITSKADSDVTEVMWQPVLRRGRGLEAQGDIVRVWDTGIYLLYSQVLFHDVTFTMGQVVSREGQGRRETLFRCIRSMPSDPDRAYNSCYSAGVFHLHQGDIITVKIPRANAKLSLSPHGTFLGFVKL
As to the kind of experiment: blocking ELISA; blocked: mouse APRIL binding to BCMA. For orientation: An ELISA detects its analyte on a solid surface through an enzyme-linked reagent.
As for B1, the “IC50 (read off the curve)” value was roughly 300 ng/mL.

Consider B2, for which the binding result is “binds”.

Turning to B3, the binding result is “binds”.

As for B4, the “IC50 (read off the curve)” value is roughly 300 ng/mL.

On to B5, for which the “IC50 (read off the curve)” value is roughly 60 ng/mL.

In a further test the target is T2, HA-GCN4 hAPRIL (amino acid residues 105-250) (human, UniProt O75888 105-250).
T2 construct: Bought (R&D Systems); also called HA-tagged GCN4 human APRIL; HA-GCN4-huAPRIL; not shown: N-terminal HA tag; GCN4 isoleucine zipper oligomerization domain
T2 sequence: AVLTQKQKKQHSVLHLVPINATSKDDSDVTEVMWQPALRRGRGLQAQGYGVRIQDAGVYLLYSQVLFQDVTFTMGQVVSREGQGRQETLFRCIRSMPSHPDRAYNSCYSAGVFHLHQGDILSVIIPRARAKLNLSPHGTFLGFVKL
Nature of the test: blocking ELISA; blocked: human APRIL binding to human BCMA-Fc. Also on record: concentration or dose not given beside the values. The procedure:
(§1) Recombinant TACI-Fc or BCMA-Fc was coated on 96 well plates in 0.1 M carbonate-bicarbonate buffer (pH 9.6), overnight at 4° C. Plates were washed three times with 1×PBST (PBS+0.025% Tween 20) followed by blocking with 1% BSA in 1×PBS, 37° C. for 1 hour. All subsequent wash steps were carried out with 1×PBST. To assess antibody blocking, either 15 ng/mL or 50 ng/mL HA-GCN4-huAPRIL was preincubated with varying antibody concentrations ranging from 0.03-30 μg/mL in binding buffer comprised of 1% BSA and 0.025% Tween-20 in 1×PBS. Preincubation was carried out at 30° C. for 1 hour with mixing. Antibody-APRIL premix with 50 ng/mL APRIL or 15 ng/mL APRIL was then added to TACI-Fc coated or BCMA-Fc coated plates, respectively, and incubated for an additional hour at 30° C. HA-tagged APRIL binding to either receptor was quantified using a goat polyclonal anti-HA tag-HRP antibody (Abcam) added at a 1:10000 dilution followed by colorimetric development using 100 μl/well of freshly prepared TMB substrate (KPL) carried out for up to 30 minutes at room temperature before quenching enzymatic reaction by the addition of 1N sulfuric acid. ELISA signal was quantified by absorbance at 450 nm. ELISA data was analyzed by non-linear regression. IC₅₀ values were calculated based on a 4 parameter fit of antibody titration curves. […] Non-blocking antibodies Aprly-1 or Aprly-5 (Enzo Biosciences) were used as negative controls. Mouse specific, blocking antibody aprily-1-1 (Adipogen) was generally used as a positive control in experiments using mouse APRIL (HA-GCN4-mAPRIL).
One may read the % Inhibition as the percentage by which the read-out fell short of the control. Regarding B6, the “% Inhibition” value was found to be 100%.

Consider B1, for which the “% Inhibition” value is 35%.

The target of the next test is T2, HA-GCN4 hAPRIL (amino acid residues …). As to the kind of experiment: blocking ELISA; blocked: human APRIL binding to human TACI-Fc. Details: concentration or dose not given beside the values. The procedure:
as §1
Regarding B6, the “% Inhibition” value stood at 91%.

Regarding B1, the “% Inhibition” value was 81%.

The target is the same in another test. Nature of the test: blocking ELISA; blocked: human APRIL binding to human BCMA-Fc. Also on record: concentration or dose not given beside the values. The source holds these as a separate data set. Here is the method:
(§2) FIGS. 19A-19B depict the antibody inhibition of APRIL binding to TNFSF receptors TACI (FIG. 19A) and BCMA (FIG. 19B). Assay is based on blocking ELISA using recombinant human APRIL (R&D Systems) and Human TACI-Fc. Inhibition was analyzed by non-linear regression using a four parameter fit.
as §1
With B7, the “% Inhibition” value was 93%.

B6: the “% Inhibition” value turned out to be 99%.

As to B1, the “% Inhibition” value came out at 37%.

Take B2: the “% Inhibition” value is 100%.

Regarding B3, the “% Inhibition” value turned out to be 100%.

As to B4, the “% Inhibition” value is 98%.

As for B5, the “% Inhibition” value turned out to be 96%.

For a further test the target is unchanged. Nature of the test: blocking ELISA; blocked: human APRIL binding to human TACI-Fc. Details: concentration or dose not given beside the values. This is another data set of the same source. The procedure:
as §2, §1
On to B7, for which the “% Inhibition” value is 95%.

For B6, the “% Inhibition” value is 40%.

On to B1, for which the “% Inhibition” value was determined as 89%.

Take B2: the “% Inhibition” value was found to be 63%.

Regarding B4, the “% Inhibition” value came out at 65%.

On to B5, for which the “% Inhibition” value amounted to 72%.

A further test shares this target. Nature of the test: blocking ELISA, 4-parameter fit; blocked: human APRIL binding to human BCMA-Fc. The procedure: as §1
Broadly, the IC50 is the point on the concentration scale where inhibition reaches its midpoint. As for B6, the IC50 came out at 0.22 nM.

Molecule B1 yielded an IC50 of 0.68 nM.

Another test has the same target. Nature of the test: blocking ELISA, 4-parameter fit; blocked: human APRIL binding to human TACI-Fc. Here is the method: as §1
The molecule B6 registered an IC50 of 0.74 nM.

As for B1, the IC50 was determined as 4.95 nM.

Another test shares this target. Nature of the test: blocking ELISA, 4-parameter fit; blocked: human APRIL binding to human BCMA-Fc. This is another data set of the same source. Here is the method: as §2, §1
The molecule B7 had an IC50 of 0.56 nM.

For B6, the IC50 was 0.31 nM.

With B1, the IC50 came out at 0.48 nM.

Turning to B2, the IC50 is 0.48 nM.

As to B3, the IC50 stood at 0.22 nM.

In turn, B4 gave an IC50 of 0.66 nM.

Consider B5, for which the half-inhibitory concentration (IC50) came out at 2.7 nM.

For another test the target is unchanged. Nature of the test: indirect ELISA on human APRIL; column head prints IC50 (pM), legend paragraph 725 calls the values EC50. An excerpt: Purified antibodies were further characterized for APRIL binding, APRIL species cross reactivity (human APRIL vs. mouse APRIL), and receptor blocking activity using TACI-Fc. For binding, an APRIL-based indirect ELISA was used to determine by first approximation the relative affinity of purified anti-APRIL antibodies to either human APRIL or mouse APRIL. ELISA method was as generally described above. […] Blocking and wash steps were completed as described. Binding of anti-APRIL antibodies to APRIL was quantified using an 8 point dilution of test antibody that spanned over a four log scale. Antibody binding to APRIL was detected using a rabbit anti-mouse IgG (H+L)-HRP conjugate (Jackson ImmunoResearch Laboratories). Antibody binding data was analyzed by non-linear regression analysis using a 3 parameter fit to determine max binding and apparent EC₅₀ values. […] Mouse specific antibody Apry-1-1 (Adipogen) was likewise used for quantification of antibody binding to mouse APRIL.
By EC50 is commonly meant the concentration that produces a half-maximal response. B7 showed an EC50 of 0.0126 nM.

For B6, the response was half-maximal at 0.005 nM (EC50).

Regarding B1, the midpoint of the response, the EC50, lay at 0.0489 nM.

Molecule B2 showed an EC50 of 0.0166 nM.

The molecule B3 had a half-maximal effective concentration (EC50) of 0.0072 nM.

Molecule B4 came in with an EC50 of 0.0129 nM.

As to B5, the EC50 was determined as 0.0175 nM.
